Measurements as given in publication PMC12416549 (2024).
Substitutions are numbered along the chain they refer to. Names and notes keep the numbering of the source.

B1: A88N (designed binder)
chain: MTLQELLREEALRRAEAEAFRYALELLAEKFPEQKEYLLDLAEEIESQIRSLSGVDVEDVRKFLDKEWAWVKELLAEHPAELAEVEANRAARLAELRAEVEAKVAA
B2: H78K (designed binder)
chain: B1 chain with H78K, N88A
B3: V85F (designed binder)
chain: B1 chain with V85F, N88A
B4: V55D (designed binder)
chain: B1 chain with V55D, N88A
B5: E58T (designed binder)
chain: B1 chain with E58T, N88A
B6: D65Q (designed binder)
chain: B1 chain with D65Q, N88A
B7: P79S (designed binder)
chain: B1 chain with P79S, N88A
B8: L82W (designed binder)
chain: B1 chain with L82W, N88A
B9: V100L (designed binder)
chain: B1 chain with N88A, V100L
B10: K35V (designed binder)
chain: B1 chain with K35V, N88A
B11: R8G (designed binder)
chain: B1 chain with R8G, N88A
B12: E16F (designed binder)
chain: B1 chain with E16F, N88A
B13: S47P (designed binder)
chain: B1 chain with S47P, N88A
B14: K103G (designed binder)
chain: B1 chain with N88A, K103G
B15: R61E (designed binder)
chain: B1 chain with R61E, N88A
B16: P79M (designed binder)
chain: B1 chain with P79M, N88A
B17: R61A (designed binder)
chain: B1 chain with R61A, N88A
B18: L38M (designed binder)
chain: B1 chain with L38M, N88A
B19: A69K (designed binder)
chain: B1 chain with A69K, N88A
B20: S53P (designed binder)
chain: B1 chain with S53P, N88A
B21: L38K (designed binder)
chain: B1 chain with L38K, N88A
B22: R14I (designed binder)
chain: B1 chain with R14I, N88A
B23: Q4L (designed binder)
chain: B1 chain with Q4L, N88A
B24: I49M (designed binder)
chain: B1 chain with I49M, N88A
B25: S47A (designed binder)
chain: B1 chain with S47A, N88A
B26: E25S (designed binder)
chain: B1 chain with E25S, N88A
B27: S47D (designed binder)
chain: B1 chain with S47D, N88A
B28: A69I (designed binder)
chain: B1 chain with A69I, N88A
B29: Q4F (designed binder)
chain: B1 chain with Q4F, N88A
B30: V60F (designed binder)
chain: B1 chain with V60F, N88A
B31: F20G (designed binder)
chain: B1 chain with F20G, N88A
B32: K66A (designed binder)
chain: B1 chain with K66A, N88A
B33: R61P (designed binder)
chain: B1 chain with R61P, N88A
B34: E95C (designed binder)
chain: B1 chain with N88A, E95C
B35: E33P (designed binder)
chain: B1 chain with E33P, N88A
B36: E46A (designed binder)
chain: B1 chain with E46A, N88A
B37: L75S (designed binder)
chain: B1 chain with L75S, N88A
B38: E67D (designed binder)
chain: B1 chain with E67D, N88A
B39: R89H (designed binder)
chain: B1 chain with N88A, R89H
B40: E29H (designed binder)
chain: B1 chain with E29H, N88A
B41: E18Q (designed binder)
chain: B1 chain with E18Q, N88A
B42: D56Q (designed binder)
chain: B1 chain with D56Q, N88A
B43: R92T (designed binder)
chain: B1 chain with N88A, R92T
B44: L52Y (designed binder)
chain: B1 chain with L52Y, N88A
B45: E43L (designed binder)
chain: B1 chain with E43L, N88A
B46: A87P (designed binder)
chain: B1 chain with A87P, N88A
B47: L7H (designed binder)
chain: B1 chain with L7H, N88A
B48: T2Y (designed binder)
chain: B1 chain with T2Y, N88A
B49: E25F (designed binder)
chain: B1 chain with E25F, N88A
B50: L24W (designed binder)
chain: B1 chain with L24W, N88A
B51: A42M (designed binder)
chain: B1 chain with A42M, N88A
B52: R50L (designed binder)
chain: B1 chain with R50L, N88A
B53: R13I (designed binder)
chain: B1 chain with R13I, N88A
B54: K103D (designed binder)
chain: B1 chain with N88A, K103D
B55: E73Y (designed binder)
chain: B1 chain with E73Y, N88A

Biological target: T1, TNFR1 (Homo sapiens, UniProt P19438)
T1 chain: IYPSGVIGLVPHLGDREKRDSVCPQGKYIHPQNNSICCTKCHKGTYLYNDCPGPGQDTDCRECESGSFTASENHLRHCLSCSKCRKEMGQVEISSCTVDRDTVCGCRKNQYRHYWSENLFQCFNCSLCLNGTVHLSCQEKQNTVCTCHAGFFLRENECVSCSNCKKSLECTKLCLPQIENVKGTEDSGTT
Assay: yeast display SC50

| Binder | apparent Kd (screen) |
| --- | --- |
| B1 | 0.718 nM |
| B2 | 0.446 nM |
| B3 | 0.79 nM |
| B4 | 9.41 nM |
| B5 | 0.718 nM |
| B6 | 0.79 nM |
| B7 | 0.593 nM |
| B8 | 0.956 nM |
| B9 | 0.49 nM |
| B10 | 1.54 nM |
| B11 | 0.593 nM |
| B12 | 1.05 nM |
| B13 | 3.3 nM |
| B14 | 0.49 nM |
| B15 | 2.73 nM |
| B16 | 0.446 nM |
| B17 | 0.869 nM |
| B18 | 0.539 nM |
| B19 | 0.593 nM |
| B20 | 13.8 nM |
| B21 | 4.39 nM |
| B22 | 0.539 nM |
| B23 | 0.446 nM |
| B24 | 0.869 nM |
| B25 | 0.49 nM |
| B26 | 1.05 nM |
| B27 | 1.27 nM |
| B28 | 0.653 nM |

| Binder | apparent Kd (screen) |
| --- | --- |
| B29 | 0.49 nM |
| B30 | 0.49 nM |
| B31 | 0.869 nM |
| B32 | 0.49 nM |
| B33 | 26.9 nM |
| B34 | 0.49 nM |
| B35 | 0.539 nM |
| B36 | 0.49 nM |
| B37 | 1.05 nM |
| B38 | 4.83 nM |
| B39 | 0.539 nM |
| B40 | 0.446 nM |
| B41 | 0.539 nM |
| B42 | 1.4 nM |
| B43 | 0.593 nM |
| B44 | 0.539 nM |
| B45 | 0.869 nM |
| B46 | 0.956 nM |
| B47 | 7.07 nM |
| B48 | 0.869 nM |
| B49 | 0.539 nM |
| B50 | 4.83 nM |
| B51 | 2.48 nM |
| B52 | 0.869 nM |
| B53 | 0.368 nM |
| B54 | 0.718 nM |
| B55 | 0.539 nM |
